Source: publication PMC546141
Changes are numbered by the printed parent chain. In names and notes the source's numbering stands.

T1: mPrrp-2xRBD (mouse, UniProt Q9JII5 1-201)
T1 sequence: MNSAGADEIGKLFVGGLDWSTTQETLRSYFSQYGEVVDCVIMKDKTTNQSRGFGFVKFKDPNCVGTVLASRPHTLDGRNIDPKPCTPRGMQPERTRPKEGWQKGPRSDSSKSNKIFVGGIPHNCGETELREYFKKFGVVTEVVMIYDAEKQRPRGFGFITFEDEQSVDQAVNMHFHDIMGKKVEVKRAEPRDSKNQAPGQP

B1: S-13 26-73 U52C (structured_RNA)
RNA: GGCAUAGCCAAAUAGUUUGUGGCCUUAGCUUAGUAUAGCUGCGGGCUAUGGGAUC
B2: S-13 26-73 U53C (structured_RNA)
RNA: B1 RNA with C29U, U30C

Target: T1, mPrrp-2xRBD
Assay: EMSA

Row | Binder | Kd [nM]
1 | B1 | ~55
2 | B2 | ~75
